Results from patent publication US20030220243A1 (Eli Lilly, published 2003).
Ends that are not written are not given here.

Target: GLP-1 receptor
Assay: cell-based or functional assay

Row | Binder | GLP-1 Receptor Activation
1 | HVEGTFTSDVSSYKEGQAAKEFIAWLVKGRG [Val^8-Lys^20-GLP-1(7-37)OH] | 0.33 relative to GLP-1(7-37)OH
2 | HVEGKFTSDVSSYLEGQAAKEFIAWLVKGRG [Val^8-Lys^11-GLP-1(7-37)OH] | 0.001 relative to GLP-1(7-37)OH
3 | HVEGTFTSDVSSYLEDQAAKEFIAWLVKGRG [Val^8-Asp^22-GLP-1(7-37)OH] | 0.4 relative to GLP-1(7-37)OH
4 | HVEGTFTSDVSSYLEGQAAKEFIAWLVEGRG [Val^8-Glu^34-GLP-1(7-37)OH] | 0.17 relative to GLP-1(7-37)OH
5 | HVEGTFTSDVSSYLEGQAAKHFIAWLVKGRG [Val^8-His^27-GLP-1(7-37)OH] | 0.37 relative to GLP-1(7-37)OH
6 | HVEGTFTSDASSYLEGQAAKEFIAWLVKGRG [Val^8-Ala^16-GLP-1(7-37)OH] | 0.112 relative to GLP-1(7-37)OH
7 | HVEGTFTSDLSSYLEGQAAEEFIAWLVKGRG [Val^8-Leu^16-Glu^26-GLP-1(7-37)OH] | 0.23 relative to GLP-1(7-37)OH
8 | HVEGTFTSDVSSYLEGQAAKEFIAWLVKGEG [Val^8-Glu^36-GLP-1(7-37)OH] | 0.11 relative to GLP-1(7-37)OH
9 | HVEGTFTSDVSSYLEPQAAKEFIAWLVKGRG [Val^8-Pro^22-GLP-1(7-37)OH] | 0.01 relative to GLP-1(7-37)OH
10 | HVEGTFTSDVSSYLEGQAAKEFIAWLAKGRG [Val^8-Ala^33-GLP-1(7-37)OH] | 0.1 relative to GLP-1(7-37)OH
11 | HGEGHFTSDVSSYLEGQAAKEFIAWLVKGRG [Gly^8-His^11-GLP-1(7-37)OH] | 0.282 relative to GLP-1(7-37)OH
12 | HAEGTFTSDVSSYLEGQAAHEFIAWLVKGRG [Ala^8-His^26-GLP-1(7-37)OH] | 0.8 relative to GLP-1(7-37)OH
13 | HVEGAFTSDVSSYLEGQAAKEFIAWLVKGRG [Val^8-Ala^11-GLP-1(7-37)OH] | 0.021 relative to GLP-1(7-37)OH
14 | HVEGTFTSDVSSYLEGKAAKEFIAWLVKGRG [Val^8-Lys^23-GLP-1(7-37)OH] | 0.18 relative to GLP-1(7-37)OH
15 | HVEGTFTSDVSSYLEHQAAKEFIAWLVKGRG [Val^8-His^22-GLP-1(7-37)OH] | 0.14 relative to GLP-1(7-37)OH
16 | HVEGTFTSDVSSYLEGQAAKEFIAWLEKGRG [Val^8-Glu^33-GLP-1(7-37)OH] | 0.039 relative to GLP-1(7-37)OH
17 | HVEGTFTSDESSYLEGQAAKEFIAWLVKGRG [Val^8-Glu^16-GLP-1(7-37)OH] | 0.047 relative to GLP-1(7-37)OH
18 | HVEGTFTSDVSSYLEAQAAKEFIAWLVKGRG [Val^8-Ala^22-GLP-1(7-37)OH] | 0.56 relative to GLP-1(7-37)OH
19 | HVEGTFTSDVSSYLEKQAAKEFIAWLVKGRG [Val^8-Lys^22-GLP-1(7-37)OH] | 0.58 relative to GLP-1(7-37)OH
20 | HVEGTFTSDVSSYLEGQAAKEFIAWLVGKRG [Val^8-Gly^34-Lys^35-GLP-1(7-37)OH] | 0.34 relative to GLP-1(7-37)OH
21 | HVEGTFTSDVSSYLEGQKAKEFIAWLVKGRG [Val^8-Lys^24-GLP-1(7-37)OH] | 0.02 relative to GLP-1(7-37)OH
22 | HVEGTFTSDVSSYLEGQAAKEFIAWLVKHRG [Val^8-His^35-GLP-1(7-37)OH] | 0.41 relative to GLP-1(7-37)OH
23 | HVEGTFTSDVSSYLEGQAAKEFIAWLKVGRG [Val^8-Lys^33-Val^34-GLP-1(7-37)OH] | 0.08 relative to GLP-1(7-37)OH
24 | HAEGTFTSDVSSYLEGQAAEEFIAWLVKGRG [Ala^8-Glu^26-GLP-1(7-37)OH] | 0.7 relative to GLP-1(7-37)OH

Row | Binder | GLP-1 Receptor Activation
25 | HVEGTFTSDVSSYLEGQAAKEFIAWLKNGRG [Val^8-Lys^33-Asn^34-GLP-1(7-37)OH] | 0.09 relative to GLP-1(7-37)OH
26 | HGEGTFTSDVSSYLEGQAAKEFIEWLVKGRG [Gly^8-Glu^30-GLP-1(7-37)OH] | 0.29 relative to GLP-1(7-37)OH
27 | HVEGTFTSDYSSYLEGQAAKEFIAWLVKGRG [Val^8-Tyr^16-GLP-1(7-37)OH] | 1.18 relative to GLP-1(7-37)OH
28 | HVEGTFTSDVSSYLEGQAAKEFIAWLVKERG [Val^8-Glu^35-GLP-1(7-37)OH] | 0.15 relative to GLP-1(7-37)OH
29 | HVEGTFTSDVSSYLEGQAAKEFIAWLGKGRG [Val^8-Gly^33-GLP-1(7-37)OH] | 0.01 relative to GLP-1(7-37)OH
30 | HVEGTFTSDVSSYLEGQAAKEFIAWLVKGHG [Val^8-His^36-GLP-1(7-37)OH] | 0.22 relative to GLP-1(7-37)OH
31 | HVEGTYTSDVSSYLEGQAAKEFIAWLVKGRG [Val^8-Tyr^12-GLP-1(7-37)OH] | 0.81 relative to GLP-1(7-37)OH
32 | HVEGTFTSDVSSYLEGQHAKEFIAWLVKGRG [Val^8-His^24-GLP-1(7-37)OH] | 0.007 relative to GLP-1(7-37)OH
33 | HVEGTFTSDVSSYLEGQAAKEFIAWLVKPRG [Val^8-Pro^35-GLP-1(7-37)OH] | 0.094 relative to GLP-1(7-37)OH
34 | HVEGTFTSDVSSYLEGQAAKEFIEWLVKGRG [Val^8-Glu^30-GLP-1(7-37)OH] | 0.29 relative to GLP-1(7-37)OH
35 | HVEGTFTSDVSSYLEKQAAKEFIEWLVKGRG [Val^8-Lys^22-Glu^30-GLP-1(7-37)OH] | 0.37 relative to GLP-1(7-37)OH
36 | HVEGTFTSDVSSYLEGQAAKEFIDWLVKGRG [Val^8-Asp^30-GLP-1(7-37)OH] | 0.15 relative to GLP-1(7-37)OH
37 | HVEGTFTSDVSSYLEEKAAKEFIAWLVKGRG [Val^8-Glu^22-Lys^23-GLP-1(7-37)OH] | 1.43 relative to GLP-1(7-37)OH
38 | HAEGTFTSDVSSYLEQQAAKEFIAWLVKGRG [Gln^22-GLP-1(7-37)OH] | 0.42 relative to GLP-1(7-37)OH
39 | HVEGTFTSDVSSYLESQAAKEFIAWLVKGRG [Val^8-Ser^22-GLP-1(7-37)OH] | 0.5 relative to GLP-1(7-37)OH
40 | HVEGTFTSDVSSYLEGQAAKEFIAWLVKGRH [Val^8-His^37-GLP-1(7-37)OH] | 0.33 relative to GLP-1(7-37)OH
41 | HVEGTFTSDVSSYLEGQAAKEFIHWLVKGRG [Val^8-His^30-GLP-1(7-37)OH] | 0.19 relative to GLP-1(7-37)OH
42 | HVEGTFTSDVSSYLEGQAAKEFISWLVKGRG [Val^8-Ser^30-GLP-1(7-37)OH] | 0.19 relative to GLP-1(7-37)OH
43 | HVEGTFTSDVSSYLEKEAAKEFIAWLVKGRH [Val^8-Lys^22-Glu^23-GLP-1(7-37)OH] | 0.35 relative to GLP-1(7-37)OH
44 | HVEGTFTSDVSSYLEEQAAKEFIAWLVKGR-NH2 [Val^8-Glu^22-GLP-1(7-36)NH2] | 1 relative to GLP-1(7-37)OH
45 | HVEGTFTSDVSSYLEGEAAKEFIAWLVKGR [Val^8-Glu^23-GLP-1(7-36)OH] | 0.28 relative to GLP-1(7-37)OH
46 | HVEGTFTSDVSSYLEKQAAKEFIAWLVKGR-NH2 [Val^8-Lys^22-GLP-1(7-36)NH2] | 0.53 relative to GLP-1(7-37)OH
47 | HVEGTFTSDVSSYLEGQAAKEFIAWLVKGGP-NH2 [Val^8-Gly^36-Pro^37-GLP-1(7-37)NH2] | 0.53 relative to GLP-1(7-37)OH
